Values quoted from earlier work, collected in PMC6842113.

Target: PSD-95 PDZ3-SH3-GK (Homo sapiens) (UniProt P78352)

Kd: 200 nM
Substance: SynGAP C-terminus (from UniProt Q9QUH6)
